Experimental findings from paper doi:10.1101/2024.12.05.626995 (bioRxiv, 2024) are described below.

For this experiment, the target named is T1, GST-tagged mature full-length GET3b (Arabidopsis thaliana, UniProt A1L4Y1 68-411).
T1 sequence: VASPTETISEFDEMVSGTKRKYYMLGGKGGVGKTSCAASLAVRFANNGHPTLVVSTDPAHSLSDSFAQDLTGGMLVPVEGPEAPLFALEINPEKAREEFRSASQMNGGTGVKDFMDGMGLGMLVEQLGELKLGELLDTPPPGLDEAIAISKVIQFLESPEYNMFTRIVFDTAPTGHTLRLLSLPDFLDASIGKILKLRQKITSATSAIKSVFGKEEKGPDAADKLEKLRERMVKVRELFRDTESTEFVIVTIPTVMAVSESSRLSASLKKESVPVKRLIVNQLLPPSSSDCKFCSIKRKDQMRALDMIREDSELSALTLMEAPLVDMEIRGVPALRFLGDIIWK
The experiment is described as follows: pull-down.

B1: His-tagged C-terminal region of ALB4 (aa 334-499) (domain or fragment)
chain: VWLQKYGGAKNPVEKFTNLVTKEDKTQQIEKSFSEPLVQKSVSELKIPREKGGEKVTPECPKPGERFRLLKEQEAKRRREKEERQKAEAALSNQNTDKAHEQDEKSDTAIVAEDDKKTELSAVDETSDGTVAVNGKPSIQKDETTNGTFGIGHDTEQQHSHETEKR
As to B1, the binding result is on record as “binds”.

B2: His-tagged C-terminal region of ALB3 (aa 350-462) (domain or fragment)
chain: VYLRKLGGAKPNMDENASKIISAGRAKRSIAQPDDAGERFRQLKEQEKRSKKNKAVAKDTVELVEESQSESEEGSDDEEEEAREGALASSTTSKPLPEVGQRRSKRSKRKRTV
Regarding B2, the binding result is “binds”.
